One may read the Kd as the constant that tells how readily two partners part at equilibrium.

Data on four molecules can be found in paper PMC4915977 (Current biology : CB, 2016).

The target of assay [1] is Mst1 SARAH domain with a C-terminal Cys, AEDANS-labelled (UniProt Q13043). Nature of the assay: FRET or BRET. Background: In BRET a luciferase serves as donor, and the signal depends on an acceptor being close.
In assay [2] the target is Mst2 SARAH domain with a C-terminal Cys, AEDANS-labelled (UniProt Q13188). Put plainly: FRET or BRET.
The target in assay [3] is T1, HA-tagged Mst2, full-length (UniProt Q13188 1-491).
T1 sequence (looked up): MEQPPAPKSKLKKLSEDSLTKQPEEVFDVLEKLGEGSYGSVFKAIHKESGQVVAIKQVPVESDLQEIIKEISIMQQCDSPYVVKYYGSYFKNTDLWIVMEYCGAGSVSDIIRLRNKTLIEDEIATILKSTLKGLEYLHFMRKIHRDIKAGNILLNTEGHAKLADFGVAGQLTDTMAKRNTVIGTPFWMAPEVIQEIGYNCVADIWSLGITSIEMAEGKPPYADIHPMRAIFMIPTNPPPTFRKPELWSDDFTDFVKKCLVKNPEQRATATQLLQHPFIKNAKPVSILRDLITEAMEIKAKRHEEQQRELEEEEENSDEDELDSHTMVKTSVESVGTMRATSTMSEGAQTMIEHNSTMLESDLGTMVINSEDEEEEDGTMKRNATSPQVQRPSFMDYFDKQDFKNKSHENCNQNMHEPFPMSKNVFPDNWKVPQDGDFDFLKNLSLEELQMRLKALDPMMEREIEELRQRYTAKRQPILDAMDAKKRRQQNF
Put plainly: co-IP.

Regarding “Mst1 SARAH domain with a C-terminal Cys, AEDANS-labelled (from UniProt Q13043 433-480) (domain or fragment)”, in assay [1], the Kd came to 6.5 µM. Molecule “Mst1 SARAH domain, unlabeled (from UniProt Q13043 433-480) (domain or fragment)” came in with a Kd in assay [2] of 720 nM. This lies in the sub-micromolar range. The same measure, in the same setting: the value for “Mst2-LW SARAH domain, unlabeled (from UniProt Q13188 437-484) (domain or fragment)” was 4300 nM.

B1: Myc-tagged Mst1, full-length (1-487) (natural protein, UniProt Q13043 1-487, looked up)
chain: METVQLRNPPRRQLKKLDEDSLTKQPEEVFDVLEKLGEGSYGSVYKAIHKETGQIVAIKQVPVESDLQEIIKEISIMQQCDSPHVVKYYGSYFKNTDLWIVMEYCGAGSVSDIIRLRNKTLTEDEIATILQSTLKGLEYLHFMRKIHRDIKAGNILLNTEGHAKLADFGVAGQLTDTMAKRNTVIGTPFWMAPEVIQEIGYNCVADIWSLGITAIEMAEGKPPYADIHPMRAIFMIPTNPPPTFRKPELWSDNFTDFVKQCLVKSPEQRATATQLLQHPFVRSAKGVSILRDLINEAMDVKLKRQESQQREVDQDDEENSEEDEMDSGTMVRAVGDEMGTVRVASTMTDGANTMIEHDDTLPSQLGTMVINAEDEEEEGTMKRRDETMQPAKPSFLEYFEQKEKENQINSFGKSVPGPLKNSSDWKIPQDGDYEFLKSWTVEDLQKRLLALDPMMEQEIEEIRQKYQSKRQPILDAIEAKKRRQQNF
Regarding B1, the “level of heterodimers relative to homodimers” value in assay [3] is roughly 60%.
